Assay [1] deals with T1, IKKβ (UniProt O88351 1-757).
T1 sequence (looked up): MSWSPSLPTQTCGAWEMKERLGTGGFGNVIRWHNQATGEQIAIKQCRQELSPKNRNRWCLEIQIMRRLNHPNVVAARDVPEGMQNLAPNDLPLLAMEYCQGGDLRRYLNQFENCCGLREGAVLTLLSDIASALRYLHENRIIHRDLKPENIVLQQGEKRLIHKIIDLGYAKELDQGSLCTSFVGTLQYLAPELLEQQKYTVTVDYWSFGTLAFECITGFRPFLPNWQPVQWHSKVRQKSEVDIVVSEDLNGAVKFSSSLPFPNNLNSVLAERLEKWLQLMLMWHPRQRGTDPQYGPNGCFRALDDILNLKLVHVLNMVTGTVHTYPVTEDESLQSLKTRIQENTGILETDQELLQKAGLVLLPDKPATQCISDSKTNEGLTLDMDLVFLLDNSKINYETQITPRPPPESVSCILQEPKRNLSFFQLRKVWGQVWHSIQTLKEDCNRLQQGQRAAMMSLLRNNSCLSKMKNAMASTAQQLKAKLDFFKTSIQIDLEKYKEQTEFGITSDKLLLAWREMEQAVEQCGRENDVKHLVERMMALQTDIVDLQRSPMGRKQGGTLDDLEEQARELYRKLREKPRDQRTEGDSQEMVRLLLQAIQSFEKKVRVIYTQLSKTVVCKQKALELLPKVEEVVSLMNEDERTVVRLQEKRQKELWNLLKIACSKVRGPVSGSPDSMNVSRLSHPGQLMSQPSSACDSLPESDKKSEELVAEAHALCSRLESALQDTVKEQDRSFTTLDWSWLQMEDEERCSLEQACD
Kind of assay: MyD88 co-immunoprecipitation from LPS-stimulated iBMDMs, western blot (FIG. 74A). The source says: (§1) Data represent mean±SEM of triplicate wells. […] Data represent mean±SEM of triplicate wells.
(Immunoblotting shows a protein as a band on a membrane.)

For assay [2], the target named is NEMO (UniProt O88522 1-412). The description is as above.
Description: as §1

Sequence of NEMO (O88522 whole entry): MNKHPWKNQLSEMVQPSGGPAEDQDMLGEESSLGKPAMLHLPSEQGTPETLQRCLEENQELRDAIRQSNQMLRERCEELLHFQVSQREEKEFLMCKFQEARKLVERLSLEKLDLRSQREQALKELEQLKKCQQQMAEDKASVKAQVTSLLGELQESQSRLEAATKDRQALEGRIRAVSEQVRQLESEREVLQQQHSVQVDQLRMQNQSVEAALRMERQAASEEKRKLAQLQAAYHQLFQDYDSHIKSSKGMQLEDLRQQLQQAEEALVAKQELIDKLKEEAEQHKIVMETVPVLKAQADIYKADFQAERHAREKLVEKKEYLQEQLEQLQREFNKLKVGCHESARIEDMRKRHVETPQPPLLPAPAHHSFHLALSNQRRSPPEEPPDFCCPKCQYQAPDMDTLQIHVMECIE

B1: MyD88 (other, UniProt P22366 1-296, looked up)
chain: MSAGDPRVGSGSLDSFMFSIPLVALNVGVRRRLSLFLNPRTPVAADWTLLAEEMGFEYLEIRELETRPDPTRSLLDAWQGRSGASVGRLLELLALLDREDILKELKSRIEEDCQKYLGKQQNQESEKPLQVARVESSVPQTKELGGITTLDDPLGQTPELFDAFICYCPNDIEFVQEMIRQLEQTDYRLKLCVSDRDVLPGTCVWSIASELIEKRCRRMVVVVSDDYLQSKECDFQTKFALSLSPGVQQKRLIPIKYKAMKKDFPSILRFITICDYTNPCTKSWFWTRLAKALSLP
notes: Adaptor protein and core of the myddosome; also called endogenous MyD88; myeloid differentiation primary response gene 88
With B1, the binding result in assay [1] and in assay [2] was “no binding” each time.

Values taken from US20200216506A1 (CHILDREN S MEDICAL CENTER, published 2020).
